# Experimental data: US20100035825
# T1: Ac-KE^217VD-CHO
# T1 chain: KEVD
# T2: Ac-KKPD^105-CHO
# T2 chain: KKPD
# B1: purified recombinant procaspase 8 (human, Alexis Biochemicals) (protein)
# chain: SESQTLDKVYQMKSKPRGYCLIINNHNFAKAREKVPKLHSIRDRNGTHLDAGALTTTFEELHFEIKPHDDCTVEQIYEILKIYQLMDHSNMDCFICCILSHGDKGIIYGTDGQEAPIYELTSQFTGLKCPSLAGKPKVFFIQACQGDNYQKGIPVETDSEEQPYLEMDLSSPQTRYIPDEADFLLGMATVNNCVSYRNPAEGTWYIQSLCQSLRERCPRGDDILTILTEVNYEVSNKDDKKNMGKQMPQPTFTLRKKLVFPSD
# Legend:
# Ac-KE^217VD-CHO = target: T1, Ac-KE^217VD-CHO
# Ac-KKPD^105-CHO = target: T2, Ac-KKPD^105-CHO
protein,measurement,setting,value
B1,"in vitro self-activation of caspase 8 (colorimetric substrate, tetrapeptides at 200 µM)",Ac-KE^217VD-CHO,inhibited
same,"in vitro self-activation of caspase 8 (colorimetric substrate, tetrapeptides at 200 µM)",Ac-KKPD^105-CHO,inhibited
